# Results reported in paper PMC5971062 (Biochemistry, 2018).
# T1: Enhanced intracellular survival (Eis) protein from Mycobacterium tuberculosis, wild type (Mycobacterium tuberculosis, UniProt P9WFK7)
# T1 sequence: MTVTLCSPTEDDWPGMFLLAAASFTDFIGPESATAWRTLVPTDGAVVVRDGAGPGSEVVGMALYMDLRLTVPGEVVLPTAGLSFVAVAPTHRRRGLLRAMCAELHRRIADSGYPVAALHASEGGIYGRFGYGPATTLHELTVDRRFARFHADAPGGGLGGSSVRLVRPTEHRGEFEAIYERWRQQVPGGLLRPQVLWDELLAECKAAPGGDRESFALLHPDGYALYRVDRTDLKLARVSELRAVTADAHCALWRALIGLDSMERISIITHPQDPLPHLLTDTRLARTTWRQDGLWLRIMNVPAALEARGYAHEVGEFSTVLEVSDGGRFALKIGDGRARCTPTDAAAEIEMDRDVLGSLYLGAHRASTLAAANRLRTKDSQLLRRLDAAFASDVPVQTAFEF
# Molecular target: T1, Enhanced intracellular survival (Eis) …
# Assay: crystal structure
binder,measurement,value
ATKAPAKKA [HupB_Mtb 9-mer peptide ATKAPAKKA],binding result,binds
